# From patent US20030195154A1
# Target: soluble human myeloproliferative leukemia (MPL) receptor (human) (UniProt P40238)
# Test: BIAcore competition: test protein preincubated with 5 nM MPL receptor, passed over Fc-TMP on protein G chip
# Parameters: unit not given here
# Chain of UniProt P40238 (P40238 26-491 limits assumed): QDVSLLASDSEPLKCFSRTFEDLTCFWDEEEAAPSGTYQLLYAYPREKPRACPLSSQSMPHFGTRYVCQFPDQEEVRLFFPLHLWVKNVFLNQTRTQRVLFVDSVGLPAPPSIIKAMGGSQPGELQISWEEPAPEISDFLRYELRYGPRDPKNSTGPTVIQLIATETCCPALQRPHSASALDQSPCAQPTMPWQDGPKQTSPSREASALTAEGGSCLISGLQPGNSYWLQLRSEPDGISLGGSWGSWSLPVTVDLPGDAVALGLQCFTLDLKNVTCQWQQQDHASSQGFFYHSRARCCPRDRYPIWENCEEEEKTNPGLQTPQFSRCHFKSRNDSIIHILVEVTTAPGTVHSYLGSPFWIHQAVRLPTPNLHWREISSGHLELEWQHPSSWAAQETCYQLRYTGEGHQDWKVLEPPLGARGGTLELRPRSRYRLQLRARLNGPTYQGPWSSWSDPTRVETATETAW
substance,measurement,value
TMP sequence fused to the carboxy-terminus of human immunoglobulin Fc (Fc-TMP) (Fc fusion),affinity,3.28 to 5.37
